Data: US20230383007A1 (BIOSION, published 2023)

Tests used:
human TROP2-his protein [1] = target: T1, human TROP2-his protein (human, UniProt P09758 27-274); experiment: competitive ELISA: soluble benchmark pre-mixed with biotin labeled human TROP2-his, added to plate coated with the benchmark (self-competition); unit taken from the x axis (nM)
T1 construct: also called biotin labeled human TROP2-his protein
T1 sequence: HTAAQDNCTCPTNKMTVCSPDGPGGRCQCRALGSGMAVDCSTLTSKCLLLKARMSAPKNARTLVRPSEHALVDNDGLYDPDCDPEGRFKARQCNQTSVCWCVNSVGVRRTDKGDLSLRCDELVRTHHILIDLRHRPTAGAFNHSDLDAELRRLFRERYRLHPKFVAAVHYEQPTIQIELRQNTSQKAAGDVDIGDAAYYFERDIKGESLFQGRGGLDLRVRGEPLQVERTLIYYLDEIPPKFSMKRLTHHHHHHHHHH

human TROP2-his protein [2] = target: T1, human TROP2-his protein; experiment: SPR Biacore; antibody captured on anti-human IgG chip, 40 nM human TROP2-his as analyte
Description: (§1) The purified anti-TROP2 mouse monoclonal antibodies (mAbs) were characterized for binding affinity and binding kinetics by Biacore T200 system (GE healthcare, Pittsburgh, PA, USA). Briefly, goat anti-human IgG (GE healthcare, Cat #BR100839, Human Antibody Capture Kit) was covalently linked to a CM5 chip (carboxy methyl dextran coated chip from GE healthcare #BR100530) via primary amines, using a standard amine coupling kit (GE healthcare, Pittsburgh, PA, USA) provided by Biacore. Un-reacted moieties on the chip (biosensor) surface were blocked with ethanolamine. The anti-TROP2 antibodies of the disclosure and the benchmark at the concentration of 2 μg/ml were respectively flowed onto the chip at a flow rate of 10 μL/min. Then, serially diluted human TROP2-his protein (prepared in-house with SEQ ID NO: 16), or cynomolgus TROP2-his protein (prepared in-house with SEQ ID NO: 19), 2-fold dilution in HBS-EP⁺ buffer (provided by Biacore) starting at 160 nM, were flowed onto the chip at a flow rate of 30 μL/min. The antigen-antibody association kinetics was followed for 2 minutes and the dissociation kinetics was followed for 10 minutes. The association and dissociation curves were fit to a 1:1 Langmuir binding model using BIAcore evaluation software.
For the BIAcore test, cell supernatants containing the 01-9F-Fc variants were respectively flowed onto the chip instead of the purified anti-TROP2 antibodies, at a flow rate of 10 μL/min, and 40 nM human TROP2-his proteins (prepared in-house with SEQ ID NO: 16) in HBS-EP⁺ buffer (provided by Biacore), instead of serially diluted human TROP2-his proteins, were flowed onto the chip at a flow rate of 30 μL/min.

human TROP2-his protein [3] = target: T1, human TROP2-his protein; experiment: SPR Biacore T200; antibody captured on anti-human IgG chip, 40 nM human TROP2-his as analyte
Description: as §1
For the BIAcore test, cell supernatants containing humanized 01-9F-CDR-V11 antibodies were respectively flowed onto the chip at a flow rate of 10 μL/min, and 40 nM human TROP2-his protein (prepared in-house with SEQ ID NO: 16) in HBS-EP⁺ buffer (provided by Biacore) were flowed onto the chip at a flow rate of 30 μL/min.

human TROP2-his protein [4] = target: T1, human TROP2-his protein; experiment: competitive ELISA: antibody pre-mixed with biotin labeled human TROP2-his, added to plate coated with the benchmark (sacituzumab analog); unit taken from the x axis (nM)
human TROP2-his protein [5] = target: T1, human TROP2-his protein; experiment: indirect ELISA, plate coated with 1 ug/ml TROP2-his; bacterial culture supernatant
Method: (§2) ELISA plates were coated with 100 μl 1 μg/ml human TROP2-his protein (in house made with SEQ ID NO: 16), or 1 μg/ml cynomolgus TROP2-his protein (in house made with SEQ ID NO: 19) in carbonate/bicarbonate buffer (pH 9.6) overnight at 4° C., washed once with wash buffer (PBS+0.05% v/v Tween-20, PBST) and then blocked with 200 μl/well blocking buffer (5% w/v non-fatty milk in PBST) for 2 hours at 37° C. Plates were washed 4 times, and respectively incubated with 100 μl bacterial culture supernatant, and sacituzumab (used as the benchmark, also referred to as BM or BM1 hereinafter, in house made with heavy chain and light chain amino acid sequences set forth in SEQ ID NOs: 17 and 18) in 5% w/v non-fatty milk in PBST at 200 ng/ml, for 40 minutes at 37° C. The plates were washed 4 times, and incubated with THE™ HA Tag Antibody [HRP], mAb, Mouse Antibody (1:5000 dilution in PBST, GenScript, Cat #A01296, 100 μl/well, for plates with bacterial culture supernatans of the disclosure) or Peroxidase AffiniPure F(ab′)₂ Fragment Goat Anti-Human IgG, Fey fragment specific (Jackson Immunoresearch, Cat #109-036-098, for plates with the benchmark), for 40 minutes at 37° C. After a final wash, plates were incubated with 100 μl/well ELISA substrate TMB (Innoreagents, Cat #TMB-S-002) at room temperature. The reaction was stopped in 3-10 minutes with 50 μl/well 1M H₂SO₄, and the absorbance of each well was read on a microplate reader using dual wavelength mode with 450 nm for TMB and 630 nm as the reference wavelength. When the OD of a sample well was 2 times higher than the OD of the blank well, the sample can be determined as positive.

[6] = target: T2, cynomolgus TROP2-his protein (cynomolgus, UniProt P09758 27-272 (human entry), limits assumed); experiment: as above
T2 construct: also called Cyno TROP2-his; Cynomolgus monkey TROP2-his protein
T2 chain: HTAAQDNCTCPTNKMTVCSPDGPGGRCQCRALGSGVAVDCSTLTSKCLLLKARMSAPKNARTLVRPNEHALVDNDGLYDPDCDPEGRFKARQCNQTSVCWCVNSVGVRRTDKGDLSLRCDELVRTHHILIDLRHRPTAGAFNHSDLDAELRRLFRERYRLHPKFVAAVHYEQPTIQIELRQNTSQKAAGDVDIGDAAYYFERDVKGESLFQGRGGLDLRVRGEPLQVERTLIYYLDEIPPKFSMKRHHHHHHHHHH
Method: as §2

B1: sacituzumab (benchmark, an analog of sacituzumab, in house made) (antibody, human IgG1, kappa, V domains shown)
VH: SVQLQQSGSELKKPGASVKVSCKASGYTFTNYGMNWVKQAPGQGLKWMGWINTYTGEPTYTDDFKGRFAFSLDTSVSTAYLQISSLKADDTAVYFCARGGFGSSYWYFDVWGQGSLVTVSS
VL: DIQLTQSPSSLSASVGDRVSITCKASQDVSIAVAWYQQKPGKAPKLLIYSASYRYTGVPDRFSGSGSGTDFTLTISSLQPEDFAVYYCQQHYITPLTFGAGTKVEIKR
notes: also called BM; BM1
For B1, the IC50 (human TROP2-his protein [1]) was 563 pM.

B2: single domain antibody 01-9F (VHH)
VHH: QVQLVESGGGSVQAGGSLRLSCVVSGLPYERYCVAWFRQGPGKEREGVARILSDGTTSYSDSVKGRFTISKDNAKNTLYLQMNSLKSEDTATYYCAAEAFRPFTPSDGDCTTVLGIDYWGKGTPVTVSS
In the case of B2, the Kd (human TROP2-his protein [2]) is reported as 202 pM, the koff (human TROP2-his protein [2]) is reported as 0.000101 s⁻¹ and the kon (human TROP2-his protein [2]) is reported as 502000 M⁻¹ s⁻¹. For the same binder, the Kd (human TROP2-his protein [3]) was 188 pM, the koff (human TROP2-his protein [3]) was 0.000224 s⁻¹ and the kon (human TROP2-his protein [3]) was 1.19e+06 M⁻¹ s⁻¹. For the same binder, the IC50 (human TROP2-his protein [4]) was 247 pM, the “Indirect ELISA OD (450-630)” value (human TROP2-his protein [5]) was 0.97 OD (450-630) and the “Indirect ELISA OD (450-630)” value [6] was 0.59 OD (450-630).
